The source of these data is patent US20150045310A1 (TRUSTEES OF PRINCETON UNIVERSITY, published 2015).

Read-outs that look alike come from different tables or passages of the source. Bridges are numbered along the chain shown (N, C = ends). Where no end group is shown, it is not given here. [ ]: non-standard residue; d: D form. eCPX = enhanced circularly permuted OmpX display scaffold; S5 = C=CCCC[C@](C)(N)C(=O)O; linker = not defined here

For experiment [1], the target named is T1, Mcl-1 (biotinylated pro-survival Bcl-2 family protein) (UniProt Q07820 171-327, limits assumed, biotinylated (co-expressed E. coli biotin ligase BirA)).
T1 construct: In the functional rows the target is the endogenous Mcl-1 of the human cancer cell lines
T1 sequence (Q07820 171-327 limits assumed): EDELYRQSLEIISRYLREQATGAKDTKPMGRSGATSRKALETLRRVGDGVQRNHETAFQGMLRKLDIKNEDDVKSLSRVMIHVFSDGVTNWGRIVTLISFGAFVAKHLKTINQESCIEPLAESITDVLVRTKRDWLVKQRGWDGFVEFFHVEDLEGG
Nature of the experiment: flow cytometry of E. coli displaying the peptide on eCPX, biotinylated target + streptavidin-PE; apparent Kd. Here is the method:
(§1) All binding assays were performed using MC1061 strain. Briefly, a 5 mL culture of a library sample or individual variant was grown to OD₆₀₀˜0.6, and induced with arabinose (0.2%) at RT for 2.5 hours. Cells were pelleted (1 mL culture, 6000 rpm, 5 min) and resuspended in 1 mL PBS. A portion of the cell suspension (50 μL) was mixed with the desired concentration of pro-survival protein to a total volume of 500 μL. The mixture was allowed to rotate at room temperature for 1 hour for equilibrium binding. The cells were pelleted again (6000 rpm, 20 min), resuspended with 100 μL of 50 nM streptavidin-phycoerythrin (SAPE), and incubated on ice in the dark for 30 min. After a final centrifugation, the cell pellets were stored on ice and resuspended in 2 mL of PBS for flow cytometry measurements. A Partec CyFlow ML Flow Cytometer equipped with a 488 nm laser was used to analyze the cells. A FACSVantage SE cell sorter was used for cell sorting in single cell mode.
(§2) A two parameter model was used to extract apparent binding affinity (Kd) from flow cytometry binding experiments.
Background: A flow cytometer gives signals particle by particle.

For experiment [2], the target named is T2, Bcl-xL (biotinylated pro-survival Bcl-2 family protein) (UniProt Q07817 1-209, biotinylated (co-expressed E. coli biotin ligase BirA)). Described as above. The protocol:
as §1, §2

Experiment [3] concerns the target Bcl-2 (biotinylated pro-survival Bcl-2 family protein) (UniProt P10415 1-217, limits assumed, biotinylated (co-expressed E. coli biotin ligase BirA)). Described as above. The protocol:
as §1, §2

The target in experiment [4] is T3, Bcl-w (biotinylated pro-survival Bcl-2 family protein) (UniProt Q92843 1-164, limits assumed, biotinylated (co-expressed E. coli biotin ligase BirA)).
T3 sequence (looked up): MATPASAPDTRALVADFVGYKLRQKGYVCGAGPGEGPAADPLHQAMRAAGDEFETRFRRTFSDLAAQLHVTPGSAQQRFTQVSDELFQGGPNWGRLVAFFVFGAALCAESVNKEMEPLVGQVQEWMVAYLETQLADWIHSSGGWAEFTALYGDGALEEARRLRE
The description is as above. The protocol: as §1, §2

Experiment [5] has as its target T1, Mcl-1 (biotinylated pro-survival Bcl-2 …). Described as above. The protocol: as §1, §2
This is another data set of the same source.

The target in experiment [6] is T2, Bcl-xL (biotinylated pro-survival Bcl-2 …). Described as above. Here is the method:
as §1, §2
The source holds these as a separate data set.

The target in experiment [7] is T1, Mcl-1 (biotinylated pro-survival Bcl-2 …). Nature of the experiment: cell-based or functional assay.
Experiment [8] shares this target. Nature of the experiment: cell-based or functional assay. This is another data set of the same source.
For experiment [9] the target is unchanged. Nature of the experiment: cell-based or functional assay. This is another data set of the same source.
Experiment [10] has the same target. Nature of the experiment: cell-based or functional assay. This is another data set of the same source.
Experiment [11] addresses T2, Bcl-xL (biotinylated pro-survival Bcl-2 …). Nature of the experiment: apparent Kd, bacterial surface display and flow cytometry. The protocol: as §1, §2
In experiment [12] the target is T1, Mcl-1 (biotinylated pro-survival Bcl-2 …). Nature of the experiment: cell-based or functional assay. The source holds these as a separate data set.
The target is the same in experiment [13]. Nature of the experiment: apparent Kd, bacterial surface display and flow cytometry. The protocol:
as §1, §2

Sequence of Bcl-2 (biotinylated pro-survival Bcl-2 family protein) (P10415 1-217 limits assumed): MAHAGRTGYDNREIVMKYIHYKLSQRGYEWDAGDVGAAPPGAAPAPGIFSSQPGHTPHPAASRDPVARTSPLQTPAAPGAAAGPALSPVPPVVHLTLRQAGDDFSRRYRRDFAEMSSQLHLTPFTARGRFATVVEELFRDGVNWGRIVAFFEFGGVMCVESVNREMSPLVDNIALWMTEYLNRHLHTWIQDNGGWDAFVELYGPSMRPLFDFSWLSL
T2 sequence (Q07817 1-209): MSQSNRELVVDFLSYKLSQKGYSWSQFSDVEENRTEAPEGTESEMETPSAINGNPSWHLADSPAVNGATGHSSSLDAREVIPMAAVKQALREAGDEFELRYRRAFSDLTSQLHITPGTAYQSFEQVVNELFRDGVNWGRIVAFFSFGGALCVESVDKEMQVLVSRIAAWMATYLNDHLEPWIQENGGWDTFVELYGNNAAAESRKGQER

B1: Bim BH3 14-mer variant M2-4 displayed on eCPX (peptide)
peptide: WLAQLLRRIGDEIN-{linker-eCPX}
modifications: reading uncertain; also: printed as Trp-Leu-Ala-Gln-Leu-Leu-Arg-Arg-Ile-Gly-Asp-Glu-Ile-Asn
notes: Clone selected against Mcl-1; not shown: eCPX display scaffold and its linker, fused C-terminal to the peptide
B1: the Kd in experiment [1] is 9.85 nM; in experiment [2], 333 nM; in [3], 93.7 nM; in [4], 542 nM; in [5], 9.85 nM.

B2: Bim BH3 14-mer variant X2-8 displayed on eCPX (peptide)
peptide: WLAQLLRRYGDEFN
modifications: also: displayed as fusion to eCPX scaffold (letters not given here)
notes: Clone selected against Bcl-xL; not shown: eCPX display scaffold and the linker to it
For B2, the Kd in [6] is 17.8 nM; in [2] it was 17.8 nM; in [3], 2350 nM; in experiment [4] it was 946 nM; in experiment [5], 2580 nM.

B3: stapled M2-2 peptide (peptide)
peptide: WVAQLLR[S5]IGD[S5]VN-NH2
modifications: staple 8-12; N-terminus assumed
SMILES: CC[C@H](C)[C@@H]1NC(=O)[C@@](C)(NC(=O)[C@H](CCCNC(=N)N)NC(=O)[C@H](CC(C)C)NC(=O)[C@H](CC(C)C)NC(=O)[C@H](CCC(N)=O)NC(=O)[C@H](C)NC(=O)[C@@H](NC(=O)[C@@H](N)Cc2c[nH]c3ccccc23)C(C)C)CCCC=CCCC[C@@](C)(C(=O)N[C@H](C(=O)N[C@@H](CC(N)=O)C(N)=O)C(C)C)NC(=O)[C@H](CC(=O)O)NC(=O)CNC1=O
For B3, the “IC50 (µM), MTT cytotoxicity assay, MDA231 cells” value in experiment [7] was 3.7 µM. Further, the “IC50 (µM), MTT cytotoxicity assay, MCF7 cells” value in [8] was 5.7 µM. The “IC50 (µM), MTT cytotoxicity assay, HeLa cells” value in experiment [9] turned out to be 6.1 µM. In addition, in experiment [10], the “IC50 (µM), MTT cytotoxicity assay, PC3 cells” value was found to be 4.7 µM.

B4: Bim BH3 14-mer variant X2-3 displayed on eCPX (peptide)
peptide: WVAQWLRRWGDEFN
modifications: also: displayed as fusion to eCPX scaffold (letters not given here)
notes: as for B2
On to B4, for which the Kd in experiment [6] came out at 9.28 nM; in experiment [2], 9.28 nM; in experiment [3], 929 nM; in experiment [4], 5890 nM; in experiment [5], 1300 nM. For the same molecule, in [11], the “fold increase in apparent affinity against wild-type Bim 14-mer” value (“fold increase in apparent affinity” below) was found to be 25 fold.

B5: Bim BH3 14-mer variant X2-10 displayed on eCPX (peptide)
peptide: WVAQTLRRWGDEFN-{linker-eCPX}
modifications: reading uncertain; also: printed as Trp-Val-Ala-Gln-Thr-Leu-Arg-Arg-Trp-Gly-Asp-Glu-Phe-Asn
notes: Clone selected against Bcl-xL; not shown: eCPX display scaffold and its linker, fused C-terminal to the peptide
As for B5, in experiment [6], the Kd was 17 nM.

B6: stapled M2-4 peptide (peptide)
peptide: WLAQLLR[S5]IGD[S5]IN-NH2
modifications: staple 8-12; N-terminus assumed
SMILES: CC[C@H](C)[C@@H]1NC(=O)[C@@](C)(NC(=O)[C@H](CCCNC(=N)N)NC(=O)[C@H](CC(C)C)NC(=O)[C@H](CC(C)C)NC(=O)[C@H](CCC(N)=O)NC(=O)[C@H](C)NC(=O)[C@H](CC(C)C)NC(=O)[C@@H](N)Cc2c[nH]c3ccccc23)CCCC=CCCC[C@@](C)(C(=O)N[C@H](C(=O)N[C@@H](CC(N)=O)C(N)=O)[C@@H](C)CC)NC(=O)[C@H](CC(=O)O)NC(=O)CNC1=O
As to B6, in experiment [7], the “IC50 (µM), MTT cytotoxicity assay, MDA231 cells” value stood at 4.4 µM. In experiment [12], the “IC50 (µM), cytotoxicity, HeLa cells” value was determined as 1.04 µM; the “IC50 (µM), cytotoxicity, MCF7 cells” value came out at 5.72 µM; the “IC50 (µM), cytotoxicity, MDA231 cells” value worked out at 4.39 µM; the “IC50 (µM), cytotoxicity, PC3 cells” value stood at 1.36 µM. The “IC50 (µM), MTT cytotoxicity assay, MCF7 cells” value in experiment [8] was found to be 5.7 µM. Also, in [9], the “IC50 (µM), MTT cytotoxicity assay, HeLa cells” value amounted to 1 µM. Besides, the “IC50 (µM), MTT cytotoxicity assay, PC3 cells” value in [10] stood at 1.4 µM.

B7: wild-type Bim BH3 14-mer peptide (residues 147-160) displayed on eCPX (peptide)
peptide: WIAQELRRIGDEFN-{linker-eCPX}
modifications: reading uncertain
notes: also called WT; Bim WT; not shown: eCPX (enhanced circularly permuted OmpX) display scaffold and its linker, fused C-terminal to the peptide
Regarding B7, the Kd in experiment [6] came out at 251 nM; in experiment [1] it was 37.7 nM; in experiment [2] it was 251 nM; in [3] it was 97.9 nM; in experiment [4], 594 nM; in [5], 37.7 nM.

B8: Bim BH3 14-mer variant M2-1 displayed on eCPX (peptide)
peptide: WIAQLLRRIGDEVN-{linker-eCPX}
modifications: reading uncertain; also: printed as Trp-Ile-Ala-Gln-Leu-Leu-Arg-Arg-Ile-Gly-Asp-Glu-Val-Asn
notes: as for B1
Consider B8, for which the Kd in experiment [1] came to 10.3 nM.

B9: Bim BH3 14-mer E151Q (pseudo-wild-type) displayed on eCPX (peptide)
peptide: WIAQQLRRIGDEFN
modifications: not fully specified
notes: also called pseudo-wild-type Bim; Bim E151Q; not shown: eCPX display scaffold and the linker to it
Regarding B9, the Kd worked out at 47.4 nM in experiment [2], 175 nM in experiment [3], 642 nM in experiment [4] and 45.2 nM in [5]. Also, the “fold increase in apparent affinity” value in experiment [11] came out at 5 fold.

B10: Bim BH3 14-mer variant M2-2 displayed on eCPX (peptide)
peptide: WVAQLLRRIGDEVN-{linker-eCPX}
modifications: reading uncertain; also: printed as Trp-Val-Ala-Gln-Leu-Leu-Arg-Arg-Ile-Gly-Asp-Glu-Val-Asn
notes: as for B1
As for B10, the Kd in [1] worked out at 5.8 nM; in experiment [2], 2800 nM; in experiment [5], 5.8 nM. In experiment [13], the “fold increase in apparent affinity” value turned out to be 6 fold.

B11: Bim BH3 14-mer E151I displayed on eCPX (peptide)
peptide: WIAQILRRIGDEFN
notes: also called E1511; Bim E151I; not shown: eCPX display scaffold and the linker to it
As for B11, the “fold increase in apparent affinity” value in experiment [13] turned out to be 2 fold.

B12: Bim BH3 14-mer E151L displayed on eCPX (peptide)
peptide: WIAQLLRRIGDEFN
notes: also called Bim E151L; pSZ55; not shown: eCPX display scaffold and the linker to it
With B12, in [13], the “fold increase in apparent affinity” value stood at 2 fold.

B13: Bim BH3 14-mer variant M2-3 displayed on eCPX (peptide)
peptide: WMAQILRRIGDEVN-{linker-eCPX}
modifications: reading uncertain; also: printed as Trp-Met-Ala-Gln-Ile-Leu-Arg-Arg-Ile-Gly-Asp-Glu-Val-Asn
notes: as for B1
Regarding B13, in experiment [1], the Kd was determined as 11.5 nM.
